Test results as given in US20180355061A1 (Janssen / Centocor, published 2018).
Blank lines part the entries; values can stand above or below the binder they belong to.

How the values were obtained:
[1] = target: T1, human PD-1 (soluble analyte in SPR) (human, UniProt Q15116 25-170, limits assumed); test: SPR (ProteOn XPR36), mAb captured on anti-human IgG Fc, PD-1 as analyte, 25 C
T1 construct: also called CD279; PDCD1
Experimental: (§1) Affinity measurements were performed using a ProteOn XPR36 system (BioRad). […] Approximately 5000 RU (response units) of mAbs were immobilized. The kinetic experiments were performed at 25° C. in running buffer (DPBS+0.01% P20+100 μg/mL BSA). To perform kinetic experiments, 200 RU of mAbs were captured followed by injections of analytes (human and cyno PD-1) at concentrations ranging from 1.563 nM to 400 nM (in a […] serial dilution). The association phase was monitored for 3 minutes at 50 μL/min, then followed by 10 or 15 minutes of buffer flow (dissociation phase). The chip surface was regenerated with two 18 second pulses of 100 mM H₃PO₄ (Sigma, Cat #7961) at 100 μL/min.
(§2) The collected data were processed using ProteOn Manager software. First, the data was corrected for background using inter-spots. Then, double reference subtraction of the data was performed by using the buffer injection for analyte injections. The kinetic analysis of the data was performed using a Langmuir 1:1 binding model. The result for each mAb was reported in the format of ka (On-rate), kd (Off-rate) and KD (equilibrium dissociation constant).
Affinity of the parental and humanized antibodies to PD-1 was measured using SPR as described in Example 1.

[2] = target: T2, human PD-1 expressed on cells (human, UniProt Q15116 25-288); test: cell-based or functional assay
[3] = target: T2, human PD-1 expressed on cells; test: cell-based or functional assay; remark: listed apart in the source
[4] = target: T2, human PD-1 expressed on cells; test: cell-based or functional assay; remark: listed apart in the source
[5] = target: T3, biotinylated Human PD-1/PDCD1 (Acro Biosystems. Cat #PD1-H82E4) (human, UniProt Q15116 25-167, biotinylated); test: Fab ELISA: Fab captured by anti-Fd(CH1), biotinylated human PD-1 at 5 nM, streptavidin-HRP chemiluminescence; reference parental PD1B878 Fab
T3 construct: Bought reagent, construct not described
Experimental: For follow-up screening, plasmid DNA was prepared from overnight culture of the TG-1 Escherichia coli cells and the pIX gene was excised by NheI/SpeI digestion. After ligation, the DNA was transformed into TG-1 cells and grown on LB/Agar plates overnight. The next day, colonies were picked, grown overnight, and the cultures used for (i) colony sequencing of the V-regions, and (ii) induction of Fab production. For Fab production, the overnight culture was diluted 100 folds in new media and grown for 5-6 hours at 37° C. Fab production was induced by the addition of fresh media containing IPTG and the cultures were grown overnight at 30° C. The following day, the cultures were spun down and the supernatants, containing the soluble Fab proteins, were used for Fab ELISA. For the ELISA, the soluble Fab proteins were captured onto plates by a polyclonal anti-Fd(CH1) antibody. After washing and blocking, biotinylated Human PD-1/PDCD1 was added at 5 nM concentration. This concentration enabled ranking of the Fab variants, defined as fold change versus the parent, in which the parental Fab, present as a control in all plates, is defined as 100% binding. The biotinylated human PD-1 was detected by HRP-conjugated streptavidin with chemiluminescence measured in a plate reader.

[6] = target: T4, cyno PD-1 (soluble analyte in SPR) (cyno); test: SPR (ProteOn XPR36), mAb captured on anti-human IgG Fc, cyno PD-1 as analyte, 25 C
T4 construct: also called cynomolgus PD-1
Experimental: as §1, §2
(§3) Affinity of the antibodies to human and cyno PD-1 was measured using SPR as described in Example 1.

[7] = target: T2, human PD-1 expressed on cells; test: cell-based or functional assay; remark: listed apart in the source
[8] = target: T1, human PD-1 (soluble analyte in SPR); test: SPR (ProteOn XPR36), mAb captured on anti-human IgG Fc, human PD-1 as analyte, 25 C
Experimental: as §1, §2, §3

T3 sequence (Q15116 25-167 limits assumed): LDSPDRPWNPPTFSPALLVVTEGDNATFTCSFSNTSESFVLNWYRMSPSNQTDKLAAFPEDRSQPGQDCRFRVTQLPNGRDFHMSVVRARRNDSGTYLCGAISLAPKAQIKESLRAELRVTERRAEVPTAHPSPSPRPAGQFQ
T1 sequence (Q15116 25-170 limits assumed): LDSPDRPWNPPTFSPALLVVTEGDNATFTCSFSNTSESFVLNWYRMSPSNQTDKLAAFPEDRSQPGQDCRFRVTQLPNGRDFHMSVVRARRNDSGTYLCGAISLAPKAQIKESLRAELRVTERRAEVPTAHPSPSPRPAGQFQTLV
T2 sequence (Q15116 25-288 limits assumed): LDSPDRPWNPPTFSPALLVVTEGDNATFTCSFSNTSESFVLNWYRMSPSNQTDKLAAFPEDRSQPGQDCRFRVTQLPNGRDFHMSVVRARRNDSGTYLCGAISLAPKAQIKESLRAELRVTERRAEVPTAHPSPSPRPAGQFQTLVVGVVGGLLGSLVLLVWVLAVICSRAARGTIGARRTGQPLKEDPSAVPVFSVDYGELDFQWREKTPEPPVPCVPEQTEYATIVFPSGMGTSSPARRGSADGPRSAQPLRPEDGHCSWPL

Kd [1]: 18.1 nM
koff [1]: 0.00214 s⁻¹
kon [1]: 118000 M⁻¹ s⁻¹
% inhibition at 10 ug/ml mAb, CMV-PBMC assay, donor D3 [2]: 27.4%
% inhibition at 10 ug/ml mAb, CMV-PBMC assay, donor D4 [2]: 0.3%
% inhibition at 10 ug/ml mAb, CMV-PBMC assay, donor D5 [2]: 69.3%
mean % inhibition of T cell proliferation, CMV-PBMC assay (FIG. 5B) [3]: 36.7%
B1: PD1B756 (antibody, human IgG1, kappa, V domains shown)
VH: QITLKESGPTLVKPTQTLTLTCTFSGFSLSTSGMGVSWIRQPPGKALEWLAHIYWDDDKRYSPSLKSRLTITKDTSKNQVVLTMTNMDPVDTGTYYCVRKGYYDYGYVMDYWGQGTLVTVSS
VL: DIVMTQSPLSLPVTPGEPASISCRSSKSLLHSNGITYLNWYLQKPGQSPQLLIYQMSNLASGVPDRFSGSGSGTDFTLKISRVEAEDVGVYYCAQNLELPLTFGGGTKVEIKR
notes: Humanized PD1B512, IgG1; also called VH PD1H389; VL PD1L472

Kd [1]: 23.2 nM
koff [1]: 0.00832 s⁻¹
kon [1]: 359000 M⁻¹ s⁻¹
% inhibition at 10 ug/ml mAb, CMV-PBMC assay, donor D4 [2]: 24.2%
% inhibition at 10 ug/ml mAb, CMV-PBMC assay, donor D5 [2]: 75%
mean % inhibition of T cell proliferation, CMV-PBMC assay (FIG. 5B) [3]: 65.9%
B2: PD1B750 (antibody, human IgG1, kappa, V domains shown)
VH: QVQLVQSGAEVKKPGASVKVSCKASGYTFTTYWMHWVRQAPGQGLEWMGEINPNNGGINYAQKFQGRVTLTVDKSISTAYMELSRLRSDDTAVYYCTIDYYDYGGYWGQGTLVTVSS
VL: DIQMTQSPSSLSASVGDRVTITCKASQNVGTNVAWYQQKPEKAPKSLIYSASYRYSGVPSRFSGSGSGTDFTLTISSLQPEDFATYYCQQYNIYPYTFGQGTKLEIKR
notes: Humanized PD1B506, IgG1; also called VH PD1H388; VL PD1L470

% inhibition of activated T cells, CMV-PBMC assay, donor D1 [4]: 78.3%
Kd [1]: 58.9 nM
koff [1]: 0.00351 s⁻¹
kon [1]: 59800 M⁻¹ s⁻¹
B3: PD1B878 (antibody, human IgG1, kappa, V domains shown)
VH: QVQLVQSGSELKKPGASVKVSCKASGYTFTDYSMHWVRQAPGQGLEWMGWINIETGEPTYAQGFTGRFVFSLDTSVSTAYLQISSLKAEDTAVYFCARDYYGTYFYAMDYWGQGTLVTVSS
VL: EIVLTQSPATLSLSPGERATLSCTASSSVSSSYLHWYQQKPGLAPRLLIYSTSNLASGIPDRFSGSGSGTDYTLTISRLEPEDFAVYYCHQYHRSPLTFGQGTKLEIKR
notes: C84S variant of PD1B743, IgG1; also called VH PD1H405; VL PD1L469

fold binding relative to parental Fab [5]: ≥ 10 fold
B4: Fab variant of PD1B878 with VH PD1H585 (E57Y) (Fab, V domains shown)
VH: QVQLVQSGSELKKPGASVKVSCKASGYTFTDYSMHWVRQAPGQGLEWMGWINIETGYPTYAQGFTGRFVFSLDTSVSTAYLQISSLKAEDTAVYFCARDYYGTYFYAMDYWGQGTLVTVSS
VL: EIVLTQSPATLSLSPGERATLSCTASSSVSSSYLHWYQQKPGLAPRLLIYSTSNLASGIPDRFSGSGSGTDYTLTISRLEPEDFAVYYCHQYHRSPLTFGQGTKLEIK
notes: Soluble Fab in E. coli supernatant; pairing with the parental VL inferred from the non-combinatorial library design

fold binding relative to parental Fab [5]: ≥ 10 fold
B5: Fab variant of PD1B878 with VH PD1H586 (E57H) (Fab, V domains shown)
VH: QVQLVQSGSELKKPGASVKVSCKASGYTFTDYSMHWVRQAPGQGLEWMGWINIETGHPTYAQGFTGRFVFSLDTSVSTAYLQISSLKAEDTAVYFCARDYYGTYFYAMDYWGQGTLVTVSS
VL: EIVLTQSPATLSLSPGERATLSCTASSSVSSSYLHWYQQKPGLAPRLLIYSTSNLASGIPDRFSGSGSGTDYTLTISRLEPEDFAVYYCHQYHRSPLTFGQGTKLEIK
notes: Soluble Fab in E. coli supernatant; pairing with the parental VL inferred

fold binding relative to parental Fab [5]: ≥ 10 fold
B6: Fab variant of PD1B878 with VH PD1H587 (E57W) (Fab, V domains shown)
VH: QVQLVQSGSELKKPGASVKVSCKASGYTFTDYSMHWVRQAPGQGLEWMGWINIETGWPTYAQGFTGRFVFSLDTSVSTAYLQISSLKAEDTAVYFCARDYYGTYFYAMDYWGQGTLVTVSS
VL: EIVLTQSPATLSLSPGERATLSCTASSSVSSSYLHWYQQKPGLAPRLLIYSTSNLASGIPDRFSGSGSGTDYTLTISRLEPEDFAVYYCHQYHRSPLTFGQGTKLEIK
notes: as for B5

fold binding relative to parental Fab [5]: ≥ 10 fold
B7: Fab variant of PD1B878 with VL PD1L652 (S30P) (Fab, V domains shown)
VH: QVQLVQSGSELKKPGASVKVSCKASGYTFTDYSMHWVRQAPGQGLEWMGWINIETGEPTYAQGFTGRFVFSLDTSVSTAYLQISSLKAEDTAVYFCARDYYGTYFYAMDYWGQGTLVTVSS
VL: EIVLTQSPATLSLSPGERATLSCTASSSVPSSYLHWYQQKPGLAPRLLIYSTSNLASGIPDRFSGSGSGTDYTLTISRLEPEDFAVYYCHQYHRSPLTFGQGTKLEIK
notes: Soluble Fab in E. coli supernatant; pairing with the parental VH inferred

fold binding relative to parental Fab [5]: ≥ 10 fold
B8: Fab variant of PD1B878 with VL PD1L651 (V29F) (Fab, V domains shown)
VH: QVQLVQSGSELKKPGASVKVSCKASGYTFTDYSMHWVRQAPGQGLEWMGWINIETGEPTYAQGFTGRFVFSLDTSVSTAYLQISSLKAEDTAVYFCARDYYGTYFYAMDYWGQGTLVTVSS
VL: EIVLTQSPATLSLSPGERATLSCTASSSFSSSYLHWYQQKPGLAPRLLIYSTSNLASGIPDRFSGSGSGTDYTLTISRLEPEDFAVYYCHQYHRSPLTFGQGTKLEIK
notes: as for B7

Kd [6]: 31.8 nM
koff [6]: 0.00544 s⁻¹
kon [6]: 171000 M⁻¹ s⁻¹
Mean % inhibition across two donors, CMV-PBMC assay [7]: 72.7%
Kd [8]: 3.19 nM
koff [8]: 0.000394 s⁻¹
kon [8]: 124000 M⁻¹ s⁻¹
B9: PD1B1086 (antibody, human IgG1, kappa, V domains shown)
VH: QVQLVQSGSELKKPGASVKVSCKASGYTFTDYSMHWVRQAPGQGLEWMGWINIETGHPTYAQGFTGRFVFSLDTSVSTAYLQISSLKAEDTAVYFCARDYYGTYFYAMDYWGQGTLVTVSS
VL: EIVLTQSPATLSLSPGERATLSCTASSSVSSSYLHWYQQKPGLAPRLLIYSTSNLASGIPDRFSGSGSGTDYTLTISRLEPEDFAVYYCHQYHRSPLTFGQGTKLEIKR
notes: also called VH PD1H586; VL PD1L469

Kd [6]: 12 nM
koff [6]: 0.00162 s⁻¹
kon [6]: 135000 M⁻¹ s⁻¹
Mean % inhibition across two donors, CMV-PBMC assay [7]: 77.9%
Kd [8]: 0.871 nM
koff [8]: 9.16e-05 s⁻¹
kon [8]: 105000 M⁻¹ s⁻¹
B10: PD1B1094 (antibody, human IgG1, kappa, V domains shown)
VH: QVQLVQSGSELKKPGASVKVSCKASGYTFTDYSMHWVRQAPGQGLEWMGWINIETGHPTYAQGFTGRFVFSLDTSVSTAYLQISSLKAEDTAVYFCARDYYGTYFYAMDYWGQGTLVTVSS
VL: EIVLTQSPATLSLSPGERATLSCTASSSVPSSYLHWYQQKPGLAPRLLIYSTSNLASGIPDRFSGSGSGTDYTLTISRLEPEDFAVYYCHQYHRSPLTFGQGTKLEIKR
notes: also called VH PD1H586; VL PD1L652

Kd [1]: 32.8 nM
koff [1]: 0.003 s⁻¹
kon [1]: 91500 M⁻¹ s⁻¹
% inhibition at 10 ug/ml mAb, CMV-PBMC assay, donor D4 [2]: 30.5%
% inhibition at 10 ug/ml mAb, CMV-PBMC assay, donor D5 [2]: 64%
mean % inhibition of T cell proliferation, CMV-PBMC assay (FIG. 5B) [3]: 58%
B11: PD1B743 (antibody, human IgG1, kappa, V domains shown)
VH: QVQLVQSGSELKKPGASVKVSCKASGYTFTDYSMHWVRQAPGQGLEWMGWINIETGEPTYAQGFTGRFVFSLDTSVSTAYLQICSLKAEDTAVYFCARDYYGTYFYAMDYWGQGTLVTVSS
VL: EIVLTQSPATLSLSPGERATLSCTASSSVSSSYLHWYQQKPGLAPRLLIYSTSNLASGIPDRFSGSGSGTDYTLTISRLEPEDFAVYYCHQYHRSPLTFGQGTKLEIKR
notes: Humanized PD1B505, IgG1; also called VH PD1H384; VL PD1L469

Kd [6]: 1.43 nM
koff [6]: 0.000185 s⁻¹
kon [6]: 130000 M⁻¹ s⁻¹
Mean % inhibition across two donors, CMV-PBMC assay [7]: 74.8%
Kd [8]: 0.223 nM
koff [8]: 2.37e-05 s⁻¹
kon [8]: 106000 M⁻¹ s⁻¹
B12: PD1B1090 (antibody, human IgG1, kappa, V domains shown)
VH: QVQLVQSGSELKKPGASVKVSCKASGYTFTDYSMHWVRQAPGQGLEWMGWINIETGYPTYAQGFTGRFVFSLDTSVSTAYLQISSLKAEDTAVYFCARDYYGTYFYAMDYWGQGTLVTVSS
VL: EIVLTQSPATLSLSPGERATLSCTASSSFSSSYLHWYQQKPGLAPRLLIYSTSNLASGIPDRFSGSGSGTDYTLTISRLEPEDFAVYYCHQYHRSPLTFGQGTKLEIKR
notes: also called VH PD1H585; VL PD1L651
